B1: HCoV-OC43 Nucleocapsid (N) protein (2X-StrepTag tagged) (natural protein)
chain: MSFTPGKQSSSRASSGNRSGNGILKWADQSDQVRNVQTRGRRAQPKQTATSQQPSGGNVVPYYSWFSGITQFQKGKEFEFVEGQGPPIAPGVPATEAKGYWYRHNRGSFKTADGNQRQLLPRWYFYYLGTGPHAKDQYGTDIDGVYWVASNQADVNTPADIVDRDPSSDEAIPTRFPPGTVLPQGYYIEGSGRSAPNSRSTSRTSSRASSAGSRSRANSGNRTPTSGVTPDMADQIASLVLAKLGKDATKPQQVTKHTAKEVRQKILNKPRQKRSPNKQCTVQQCFGKRGPNQNFGGGEMLKLGTSDPQFPILAELAPTAGAFFFGSRLELAKVQNLSGNPDEPQKDVYELRYNGAIRFDSTLSGFETIMKVLNENLNAYQQQDGMMNMSPKPQRQRGHKNGQGENDNISVAVPKSRVQQNKSRELTAEDISLLKKMDEPYTEDTSEI
notes: also called rN; HCoV-OC43 rN; source: HEK293-FT, transfected, in crude lysate; not shown: 2X-StrepTag, C-terminal, kept

Biological target: B1
Experiment: BLI
Conditions: one partner purified

| Binder | Kd [nM] | koff [s⁻¹] | kon [M⁻¹ s⁻¹] |
| --- | --- | --- | --- |
| CCL28 (ligand, recombinant human CCL28; source: bought: PeproTech) SEAILPIASSCCTEVSHHISRRLLERVNMCRIQRADGDCDLAAVILHVKRRRICVSPHNHTVKQWMKVQAAKKNGKGNVCHRKKHHGKRNSNRAHQGKHETYGHKTPY | 27 | 0.0015 | 60000 |
| CCL25 (ligand, recombinant human CCL25; source: bought: PeproTech) QGVFEDCCLAYHYPIGWAVLRRAWTYRIQEVSGSCNLPAAIFYLPKRHRKVCGNPKSREVQRAMKLLDARNKVFAKLHHNTQTFQAGPHAVKKLSSGNSKLSSSKFSNPISSSKRNVSLLISANSGL | 610 | 0.0048 | 8300 |
| IL-27 (complex, source: bought: PeproTech) chain 1: FPRPPGRPQLSLQELRREFTVSLHLARKLLSEVRGQAHRFAESHLPGVNLYLLPLGEQLPDVSLTFQAWRRLSDPERLCFISTTLQPFHALLGGLGTQGRWTNMERMQLWAMRLDLRDLQRHLRFQVLAAGFNLPEEEEEEEEEEEEERKGLLPGALGSALQGPAQVSWPQLLSTYRLLHSLELVLSRAVRELLLLSKAGHSVWPLGFPTLSPQP chain 2: RKGPPAALTLPRVQCRASRYPIAVDCSWTLPPAPNSTSPVSFIATYRLGMAARGHSWPCLQQTPTSTSCTITDVQLFSMAPYVLNVTAVHPWGSSSSFVPFITEHIIKPDPPEGVRLSPLAERQLQVQWEPPGSWPFPEIFSLKYWIRYKRQGAARFHRVGPIEATSFILRAVRPRARYYVQVAAQDLTDYGELSDWSLPATATMSLGK | 55 | 0.0024 | 51000 |
| CCL13 (ligand, recombinant human CCL13; source: bought: PeproTech) not shown | 1600 | 0.025 | 19000 |
| CXCL11 (ligand, recombinant human CXCL11; source: bought: PeproTech) FPMFKRGRCLCIGPGVKAVKVADIEKASIMYPSNNCDKIEVIITLKENKGQRCLNPKSKQARLIIKKVERKNF | 730 | 0.012 | 18000 |
| CCL5 (ligand, recombinant human CCL5; source: bought: PeproTech) SPYSSDTTPCCFAYIARPLPRAHIKEYFYTSGKCSNPAVVFVTRKNRQVCANPEKKWVREYINSLEMS | 56000 | 0.015 | 2100 |
| CXCL14 (ligand, recombinant human CXCL14; source: bought: PeproTech) SKCKCSRKGPKIRYSDVKKLEMKPKYPHCEEKMVIITTKSVSRYRGQEHCLHPKLQSTKRFIKWYNAWNEKRRVYEE | 580 | 0.0063 | 12000 |
| CCL26 (ligand, recombinant human CCL26; source: bought: PeproTech) TRGSDISKTCCFQYSHKPLPWTWVRSYEFTSNSCSQRAVIFTTKRGKKVCTHPRKKWVQKYISLLKTPKQL | 620 | 0.014 | 20000 |
| CCL11 (ligand, recombinant human CCL11; source: bought: PeproTech) not shown | 1400 | 0.021 | 17000 |
| CXCL9 (ligand, recombinant human CXCL9; source: bought: PeproTech) TPVVRKGRCSCISTNQGTIHLQSLKDLKQFAPSPSCEKIEIIATLKNGVQTCLNPDSADVKELIKKWEKQVSQKKKQKNGKKHQKKKVLKVRKSQRSRQKKTT | 29 | 0.0022 | 82000 |
| CXCL13 (ligand, recombinant human CXCL13; source: bought: PeproTech) VLEVYYTSLRCRCVQESSVFIPRRFIDRIQILPRGNGCPRKEIIVWKKNKSIVCVDPQAEWIQRMMEVLRKRSSSTLPVPVFKRKIP | 140 | 0.0046 | 44000 |
| CCL21 (ligand, recombinant human CCL21; source: bought: PeproTech) SDGGAQDCCLKYSQRKIPAKVVRSYRKQEPSLGCSIPAILFLPRKRSQAELCADPKELWVQQLMQHLDKTPSPQKPAQGCRKDRGASKTGKKGKGSKGCKRTERSQTPKGP | 290 | 0.012 | 67000 |

Biological target: T1, CXCL12α (human, UniProt P48061-2 22-89)
T1 construct: source: bought: PeproTech
T1 sequence (P48061 22-89): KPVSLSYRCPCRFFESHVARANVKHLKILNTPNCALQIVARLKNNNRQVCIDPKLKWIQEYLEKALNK
Experiment: BLI
Conditions: one partner purified

| Binder | Kd [nM] | koff [s⁻¹] | kon [M⁻¹ s⁻¹] |
| --- | --- | --- | --- |
| B1 | 0.46 | 3.7e-05 | 62000 |
